According to PMC7820290:

Assays:
Assay in all cases: co-condensation microscopy
N175-419 (SARS-CoV-2) = N175-419 (SARS-CoV-2) (UniProt P0DTC9)
N49-246 (SARS-CoV-2) = N49-246 (SARS-CoV-2) (UniProt P0DTC9)
[1] = molecular target: SARS-CoV-2 nucleocapsid (N), wild type (SARS-CoV-2) (UniProt P0DTC9)
N175-364 (SARS-CoV-2) = N175-364 (SARS-CoV-2) (UniProt P0DTC9)
N1-246 (SARS-CoV-2) = N1-246 (SARS-CoV-2) (UniProt P0DTC9)

Sequence: GGGAUUAAAGGUUUAUACCUUCCCAGGUAACAAACCAACCAACUUUCGAUCUCUUGUAGAUCUGUUCUCUAAACGAACUUUAAAAUCUGUGUGGCUGUCACUCGGCUGCAUGCUUAGUGCACUCACGCAGUAUAAUUAAUAACUAAUUACUGUCGUUGACAGGACACGAGUAACUCGUCUAUCUUCUGCAGGCUGCUUACGGUUUCGUCCGUGUUGCAGCCGAUCAUCAGCACAUCUAGGUUUCGUCCGGGUGUGACCGAAAGGUAAG [UTR265]
- binding signal (% fluorescence in condensates) (N175-419 (SARS-CoV-2)): 9.3
- binding signal (% fluorescence in condensates) (N49-246 (SARS-CoV-2)): 18
- binding signal (% fluorescence in condensates) [1]: 35
- binding signal (% fluorescence in condensates) (N175-364 (SARS-CoV-2)): 8.4
- binding signal (% fluorescence in condensates) (N1-246 (SARS-CoV-2)): 13
